Data reported in article doi:10.1101/2023.04.10.536218.

Target: major capsid protein VP1 of sheep polyomavirus (ShPyV) (sheep polyomavirus (ShPyV))
Experiment: crystal structure

Substance: major capsid protein VP1 of sheep polyomavirus (ShPyV) (natural protein)
- stoichiometry N: 5
